Laboratory results from IntAct's records for PubMed 10675337.

B1: GA-binding protein subunit beta-1 (Homo sapiens), Q06547-2 (parent)
chain: MSLVDLGKKLLEAARAGQDDEVRILMANGAPFTTDWLGTSPLHLAAQYGHYSTTEVLLRAGVSRDARTKVDRTPLHMAASEGHASIVEVLLKHGADVNAKDMLKMTALHWATEHNHQEVVELLIKYGADVHTQSKFCKTAFDISIDNGNEDLAEILQIAMQNQINTNPESPDTVTIHAATPQFIIGPGGVVNLTDETGVSAVQFGNSSTSVLATLAALAEASAPLSNSSETPVVATEEVVTAESVDGAIQQVVSSGGQQVITIVTDGIQLGNLHSIPTSGIGQPIIVTMPDGQQVLTVPATDIAEETVISEEPPAKRQCIEIIENRVESAEIEEREALQKQLDEANREAQKYRQQLLKKEQEAEAYRQKLEAMTRLQTNKEAV

Variants of: B1
Conditions: with hcfc1_human HCFC1, P51610
Sequence of hcfc1_human HCFC1, P51610 (P51610 whole entry): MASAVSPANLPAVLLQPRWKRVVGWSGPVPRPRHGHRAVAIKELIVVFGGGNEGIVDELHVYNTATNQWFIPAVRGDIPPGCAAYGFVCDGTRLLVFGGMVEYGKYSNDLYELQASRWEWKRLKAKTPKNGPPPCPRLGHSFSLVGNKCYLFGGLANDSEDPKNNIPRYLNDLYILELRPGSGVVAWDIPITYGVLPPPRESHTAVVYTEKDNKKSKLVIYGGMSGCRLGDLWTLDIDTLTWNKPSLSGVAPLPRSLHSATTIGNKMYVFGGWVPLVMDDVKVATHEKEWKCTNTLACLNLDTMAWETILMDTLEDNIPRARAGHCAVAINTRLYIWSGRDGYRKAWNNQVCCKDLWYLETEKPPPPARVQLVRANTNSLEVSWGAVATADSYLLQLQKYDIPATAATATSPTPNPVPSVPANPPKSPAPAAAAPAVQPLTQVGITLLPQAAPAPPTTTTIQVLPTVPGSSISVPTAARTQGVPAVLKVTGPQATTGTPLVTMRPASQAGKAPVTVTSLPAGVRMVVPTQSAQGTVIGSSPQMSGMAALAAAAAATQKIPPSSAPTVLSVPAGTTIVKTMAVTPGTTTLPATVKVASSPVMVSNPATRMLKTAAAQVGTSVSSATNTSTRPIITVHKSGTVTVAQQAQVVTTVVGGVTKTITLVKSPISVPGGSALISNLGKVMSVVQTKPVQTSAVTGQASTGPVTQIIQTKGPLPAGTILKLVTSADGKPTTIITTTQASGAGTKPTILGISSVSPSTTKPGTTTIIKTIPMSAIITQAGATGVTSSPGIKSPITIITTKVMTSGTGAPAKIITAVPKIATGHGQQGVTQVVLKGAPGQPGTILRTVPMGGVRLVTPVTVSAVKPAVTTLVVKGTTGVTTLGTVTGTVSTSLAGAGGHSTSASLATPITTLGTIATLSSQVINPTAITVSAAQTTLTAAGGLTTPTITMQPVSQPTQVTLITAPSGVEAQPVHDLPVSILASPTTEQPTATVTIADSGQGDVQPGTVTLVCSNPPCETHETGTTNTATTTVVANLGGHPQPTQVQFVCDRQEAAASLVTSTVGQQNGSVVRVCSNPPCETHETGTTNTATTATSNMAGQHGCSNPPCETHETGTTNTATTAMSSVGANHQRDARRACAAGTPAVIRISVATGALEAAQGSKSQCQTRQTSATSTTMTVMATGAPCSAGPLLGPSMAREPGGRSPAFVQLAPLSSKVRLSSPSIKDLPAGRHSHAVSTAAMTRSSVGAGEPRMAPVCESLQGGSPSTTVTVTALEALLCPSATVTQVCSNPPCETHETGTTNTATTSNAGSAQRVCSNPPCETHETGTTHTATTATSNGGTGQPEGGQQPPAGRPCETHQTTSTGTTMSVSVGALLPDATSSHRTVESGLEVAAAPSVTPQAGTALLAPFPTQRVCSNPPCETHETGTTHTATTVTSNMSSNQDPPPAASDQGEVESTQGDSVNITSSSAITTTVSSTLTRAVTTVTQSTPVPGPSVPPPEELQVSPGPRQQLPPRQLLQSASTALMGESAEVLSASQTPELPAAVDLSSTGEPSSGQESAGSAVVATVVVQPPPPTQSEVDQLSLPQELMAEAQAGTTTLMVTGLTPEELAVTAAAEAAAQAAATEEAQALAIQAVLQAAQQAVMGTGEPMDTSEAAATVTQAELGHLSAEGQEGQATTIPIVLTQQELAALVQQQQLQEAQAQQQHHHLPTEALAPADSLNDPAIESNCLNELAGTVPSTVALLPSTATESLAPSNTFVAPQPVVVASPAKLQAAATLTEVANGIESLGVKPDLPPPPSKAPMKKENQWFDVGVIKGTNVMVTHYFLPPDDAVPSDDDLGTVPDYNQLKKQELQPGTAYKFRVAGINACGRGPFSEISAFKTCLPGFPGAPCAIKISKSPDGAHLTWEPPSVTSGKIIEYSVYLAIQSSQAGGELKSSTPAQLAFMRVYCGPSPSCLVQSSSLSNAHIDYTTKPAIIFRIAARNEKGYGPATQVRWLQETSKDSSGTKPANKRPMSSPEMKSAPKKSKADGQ

Variant | effect of a mutation on the interaction
V295A;V298A | decreasing interaction
V252A;V253A | decreasing interaction
